The results in this text go back to patent US20250215073A1 (TOKUSHIMA UNIVERSITY, published 2025).

One assay has as its target T1, human c-KIT (human, UniProt P10721 26-976).
T1 construct: whole, on cells; Endogenous c-KIT of the GIST cell line GIST-T1 and the small cell lung cancer line SY; also called c-KIT on GIST-T1 cells; c-KIT on SCLC cell line SY
In words: flow cytometry on fixed GIST-T1 cells, 10 µg antibody. As to the method: GIST-T1 cells were collected with trypsin (on ice), and 1×10⁶ cells were dispensed into 1.5 mL tubes. The cells were washed three times with 1 mL of PBS-BSA-Azide. To each tube, 1 mL of 4% paraformaldehyde cooled to 4° C. was added and mixed by gentle pipetting on ice. The tubes were returned to room temperature and left to stand for 15 minutes (the subsequent process was carried out at room temperature). The cells were washed three times with 1 mL of PBS-BSA-Azide.
To GIST-T1 cell pellets, 100 μL of each antibody solution prepared with PBS-BSA-Azide was added and mixed. The mixtures were prepared to contain 10 μg of the IR700-labeled mouse anti-c-KIT (12A8) antibody, 10 μg of the IR700-labeled humanized anti-c-KIT (12A8) IgG1 antibody, and 10 μg of the IR700-labeled humanized anti-c-KIT (12A8) Fab antibody, respectively. Each mixture was covered with aluminum foil in the dark and allowed to react at room temperature (from 20° C. to 25° C.) for 60 minutes (the subsequent process was carried out in the dark as much as possible). Washing was performed three times by adding 1 mL of PBS-BSA-Azide. After adding 500 μL of PBS-BSA-Azide and mixing, each mixture was passed through a filter (42-μm nylon mesh, AS ONE Corporation). Measurement was performed using FACS (CytoFLEX (Beckman Coulter)) with excitation at 638 nm and 712/25BP.
Background: A flow cytometer gives signals particle by particle.

The target in assay [1] is T2, FLT4-Fc (fusion product of the extracellular region of the human FLT4 protein and mouse antibody Fc) (human; mouse, UniProt P35916 25-775).
T2 construct: extracellular domain; Negative control antigen in the EIA
T2 sequence (looked up): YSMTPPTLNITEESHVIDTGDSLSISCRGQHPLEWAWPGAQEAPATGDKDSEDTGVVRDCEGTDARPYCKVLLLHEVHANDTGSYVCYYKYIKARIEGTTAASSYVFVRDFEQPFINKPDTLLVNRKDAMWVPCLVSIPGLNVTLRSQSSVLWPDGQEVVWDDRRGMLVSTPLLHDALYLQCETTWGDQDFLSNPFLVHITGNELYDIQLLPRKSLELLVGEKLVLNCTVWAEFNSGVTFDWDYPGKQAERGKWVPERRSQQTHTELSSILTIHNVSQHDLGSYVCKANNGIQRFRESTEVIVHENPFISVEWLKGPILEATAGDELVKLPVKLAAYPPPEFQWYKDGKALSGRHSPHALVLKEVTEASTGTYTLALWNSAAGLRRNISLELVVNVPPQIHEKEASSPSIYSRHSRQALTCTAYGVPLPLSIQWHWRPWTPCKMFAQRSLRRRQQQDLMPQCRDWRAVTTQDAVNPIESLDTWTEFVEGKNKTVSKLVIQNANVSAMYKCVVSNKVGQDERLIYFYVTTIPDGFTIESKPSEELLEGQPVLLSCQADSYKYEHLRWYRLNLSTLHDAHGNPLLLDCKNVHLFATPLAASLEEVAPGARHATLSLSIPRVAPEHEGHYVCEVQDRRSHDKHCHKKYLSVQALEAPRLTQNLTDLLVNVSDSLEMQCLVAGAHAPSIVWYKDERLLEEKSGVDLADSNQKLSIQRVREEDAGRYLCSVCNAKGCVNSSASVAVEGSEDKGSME
In words: EIA, antigen solid-phased in 96-well plate, HRP anti-human Kappa detection. From the text:
Since the antigen recognition site of the anti-c-KIT (12A8) antibody is the extracellular region of the human c-KIT protein, a fusion protein (c-KIT-Fc) of the c-KIT extracellular region and the Fc region of the mouse antibody was used as the antigen for EIA. A fusion product of the extracellular region of the human FLT4 protein and mouse antibody Fc (FLT4-Fc) was used as a negative control.
Each above was solid-phased in a 96-well plate, blocked with a BSA solution, washed, sufficiently dried, and then stored in a refrigerator until use. The humanized anti-c-KIT (12A8) IgG1 antibody-producing clone culture supernatant was diluted 2-fold to 64-fold and added to an antigen solid-phase plate and a negative control plate so as to perform a primary reaction. The same was performed for the humanized anti-c-KIT (12A8) Fab antibody. The primary reaction was carried out for one hour at room temperature, and then each well was washed with phosphate-buffered saline (PBS). The HRP-labeled anti-human Kappa chain antibody was added as a secondary antibody and reacted for 30 minutes at room temperature. Thereafter, each well was washed with PBS, and the substrate OPD (Sigma-Aldrich) was added to develop a color. IN sulfuric acid was added to stop the reaction, and the absorbance at 490 nm was measured.

T1 sequence (P10721 26-976): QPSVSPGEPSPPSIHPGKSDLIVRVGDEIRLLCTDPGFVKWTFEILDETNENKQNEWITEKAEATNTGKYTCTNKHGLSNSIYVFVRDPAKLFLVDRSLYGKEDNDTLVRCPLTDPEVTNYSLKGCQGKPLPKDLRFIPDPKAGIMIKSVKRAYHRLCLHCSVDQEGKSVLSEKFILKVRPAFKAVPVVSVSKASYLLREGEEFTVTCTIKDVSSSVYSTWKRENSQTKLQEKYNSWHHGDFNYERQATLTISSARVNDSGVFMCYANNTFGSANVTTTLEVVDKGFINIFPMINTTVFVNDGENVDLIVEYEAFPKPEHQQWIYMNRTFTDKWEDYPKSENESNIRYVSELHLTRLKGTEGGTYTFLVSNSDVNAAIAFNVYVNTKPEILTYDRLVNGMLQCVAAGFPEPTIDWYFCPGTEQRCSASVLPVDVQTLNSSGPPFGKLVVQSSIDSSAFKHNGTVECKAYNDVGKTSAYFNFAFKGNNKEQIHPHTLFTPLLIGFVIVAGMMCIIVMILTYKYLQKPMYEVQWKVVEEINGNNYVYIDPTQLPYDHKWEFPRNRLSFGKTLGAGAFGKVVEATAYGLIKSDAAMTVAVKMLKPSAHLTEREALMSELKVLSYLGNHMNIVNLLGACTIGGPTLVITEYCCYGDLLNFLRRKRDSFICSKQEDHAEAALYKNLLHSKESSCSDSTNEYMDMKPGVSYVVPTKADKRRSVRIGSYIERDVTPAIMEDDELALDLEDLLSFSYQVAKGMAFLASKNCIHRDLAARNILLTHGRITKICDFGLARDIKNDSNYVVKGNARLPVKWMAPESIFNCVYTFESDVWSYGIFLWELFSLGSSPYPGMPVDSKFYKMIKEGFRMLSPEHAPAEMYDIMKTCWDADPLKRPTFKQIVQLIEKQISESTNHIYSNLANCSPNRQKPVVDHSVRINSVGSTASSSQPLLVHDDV

B1: IR700-labeled mouse anti-c-KIT (12A8) antibody (whole IgG) (antibody, V domains shown)
VH: EVQLQQSGPELVKTGTSVKISCKASGYSFSNYYMHWVKQSHGKSLEWIGYISCFNGATTYNQKFRGKATFTVDTSSSTTYMQFNSLTSEDSAVYFCARRTAGAMDYWGQGTSVTVSS
VL: EVVVTQTPLSLPVSFGDQVSISCRSSQSLANSYGNTYLSWYLHKPGQSPQLLIYGISNRFSGVPDRFSGSGSGTEFTLEISTIKPEDLGMYYCLQGTHQPYTFGGGTKLEIKR
modifications: IR700 (IRDye700DX) conjugated, residues not stated
notes: Mouse IgG1 12A8 conjugated with IRDye700DX; also called IR700-12A8 (whole IgG); IR700-12A8 Whole IgG
For the molecule B1, in the assay with human c-KIT, the binding result is on record as “binds”.

B2: IR700-labeled humanized anti-c-KIT (12A8) IgG1 antibody (antibody, V domains shown)
VH: QVQLVQSGAEVKKPGASVKVSCKASGYSFSNYYMHWVRQAPGQRLEWMGYISCFNGATTYNQKFRGRVTITRDTSASTAYMELSSLRSEDTAVYYCARRTAGAMDYWGQGTLVTVSS
VL: DIVMTQTPLSLSVTPGQPASISCRSSQSLANSYGNTYLSWYLQKPGQSPQLLIYGISNRFSGVPDRFSGSGSGTDFTLKISRVEAEDVGVYYCLQGTHQPYTFGGGTKVEIKR
modifications: IR700 (IRDye700DX) conjugated, residues not stated
notes: The antibody was purified on protein A before labeling; also called Humanized Whole IgG
In the case of B2, the binding result with human c-KIT was “binds”.

B3: humanized anti-c-KIT (12A8) Fab antibody (Fab, V domains shown)
VH: QVQLVQSGAEVKKPGASVKVSCKASGYSFSNYYMHWVRQAPGQRLEWMGYISCFNGATTYNQKFRGRVTITRDTSASTAYMELSSLRSEDTAVYYCARRTAGAMDYWGQGTLVTVSS
VL: DIVMTQTPLSLSVTPGQPASISCRSSQSLANSYGNTYLSWYLQKPGQSPQLLIYGISNRFSGVPDRFSGSGSGTDFTLKISRVEAEDVGVYYCLQGTHQPYTFGGGTKVEIKR
notes: Recombinant Fab, tested in the EIA as CHO-K1 culture supernatant; also called Fab fragment of the humanized anti-c-KIT (12A8) antibody
Take B3: the binding result in assay [1] is reported as “no binding”.

B4: IR700-labeled humanized anti-c-KIT (12A8) Fab antibody (Fab, V domains shown)
VH: QVQLVQSGAEVKKPGASVKVSCKASGYSFSNYYMHWVRQAPGQRLEWMGYISCFNGATTYNQKFRGRVTITRDTSASTAYMELSSLRSEDTAVYYCARRTAGAMDYWGQGTLVTVSS
VL: DIVMTQTPLSLSVTPGQPASISCRSSQSLANSYGNTYLSWYLQKPGQSPQLLIYGISNRFSGVPDRFSGSGSGTDFTLKISRVEAEDVGVYYCLQGTHQPYTFGGGTKVEIKR
modifications: IR700 (IRDye700DX) conjugated, residues not stated
notes: The Fab was purified on Kan Cap G before labeling; also called Humanized Fab
With B4, in the assay with human c-KIT, the binding result is reported as “binds”.

B5: humanized anti-c-KIT (12A8) IgG1 antibody (antibody, V domains shown)
VH: QVQLVQSGAEVKKPGASVKVSCKASGYSFSNYYMHWVRQAPGQRLEWMGYISCFNGATTYNQKFRGRVTITRDTSASTAYMELSSLRSEDTAVYYCARRTAGAMDYWGQGTLVTVSS
VL: DIVMTQTPLSLSVTPGQPASISCRSSQSLANSYGNTYLSWYLQKPGQSPQLLIYGISNRFSGVPDRFSGSGSGTDFTLKISRVEAEDVGVYYCLQGTHQPYTFGGGTKVEIKR
notes: Human IgG1 / kappa, tested in the EIA as CHO-K1 culture supernatant; also called humanized c-KIT (12A8) IgG1; humanized anti-c-KIT (12A8) antibody (whole IgG)
In the case of B5, the binding result in assay [1] is recorded as “no binding”.
